Reference: US20100158968A1 (published 2010)
Where two headings read alike, the source gives them in different places.

B1: KKKALNRQLGVAA (peptide)
peptide: KKKALNRQLGVAA
B2: YARAAARQARA (peptide)
peptide: YARAAARQARA
B3: KAFAKLAARLYRKALARQLGVAA (peptide)
peptide: KAFAKLAARLYRKALARQLGVAA

Key:
[1] = target: T1, mitogen-activated protein kinase-activated protein kinase 2 (human MK2) (human, UniProt P49137 46-400); assay: kinase inhibition, radiometric assay
[2] = target: T1, mitogen-activated protein …; assay: kinase inhibition, radiometric assay; remark: listed apart in the source

T1 sequence (P49137 46-400): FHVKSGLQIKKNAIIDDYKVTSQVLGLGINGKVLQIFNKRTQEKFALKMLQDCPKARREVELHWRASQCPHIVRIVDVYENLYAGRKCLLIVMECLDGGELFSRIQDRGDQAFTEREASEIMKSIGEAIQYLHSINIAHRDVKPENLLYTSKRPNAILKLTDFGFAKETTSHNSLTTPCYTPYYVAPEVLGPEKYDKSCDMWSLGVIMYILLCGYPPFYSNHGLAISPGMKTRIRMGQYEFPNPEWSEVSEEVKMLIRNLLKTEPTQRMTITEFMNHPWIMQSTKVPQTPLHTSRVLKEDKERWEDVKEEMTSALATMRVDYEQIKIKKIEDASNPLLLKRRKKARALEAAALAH

Row | Binder | IC50 [1] [µM] | IC50 [2] [µM]
1 | B1 | 31.2 | 
2 | B2 | > 1000 | 
3 | B3 |  | 4.43
